According to patent US20090280108A1, “SERUM AMYLOID A PROTEIN IN INFLAMMATION AND OBESITY” (priority 2004, published 2009):

What was measured:
[1] = tested on: mouse monocyte cell line RAW264; experiment: Cytokine release from SAA-treated RAW264 monocytes (Luminex); format: cell-based; conditions: RAW264 cells
Method: (§1) Cell Culture Conditions. Primary human coronary artery endothelial cells (HCAECs) were purchased from Cambrex (Walkersville, Md.) and grown in endothelial cell basal medium-2 (EBM-2) supplemented with EGM-2 BulletKit. Experiments were conducted between the third to fifth passages. RAW264 cells (ATCC, Manassas, Va.) were grown in RPMI medium 1640 supplemented with about 10% fetal bovine serum. These cells were seeded on 6-well tissue culture plates at about 75% confluence and grown to about 90-95% confluence. The growth medium was replaced with supplement-free media (EBM-2 basal medium for HCAECs and RPMI1640 for RAW264). About one hour after the medium change, the cells were treated with recombinant human SAA (Peprotech, Rocky Hill, N.J.). The endotoxin level for this commercial preparation is advertised as less than about 0.1 ng/μg protein. The conditioned medium was collected about 8 hours after the SAA treatment by centrifugation at about 2,000×g for about 5 minutes and frozen until use for cytokine analysis.
(§2) Cytokine analysis. […] The intra- and inter-assay CV is about 5% and about 8% respectively. […] All samples were assayed in duplicate.

[2] = tested on: Primary human coronary vascular endothelial cells (HCVECs); experiment: Cytokine release from SAA-treated human coronary vascular endothelial cells (Luminex / ELISA); format: cell-based
Method: as §1, §2

[3] = tested on: adipose tissue A-SAA production; experiment: Adipose organ culture: direct effect on adipose A-SAA production in vitro; conditions: rosiglitazone 1 μM; dexamethasone 25 nM and insulin 7 nM; about 48 hours, SAA production between 24 to 48 hours; n=3
[4] = SAA 0.47 or 2.3 μg/ml, about 8 hours, serum-free medium, dose-dependent

lipopolysaccharide [LPS, reference compound]
cytokine secretion (endotoxin contamination control) ([1]; LPS 1 ng/ml): did not stimulate cytokine secretion
cytokine secretion (endotoxin contamination control) ([2]; LPS 1 ng/ml): did not stimulate cytokine secretion

CN(CCOc1ccc(CC2SC(=O)NC2=O)cc1)c1ccccn1 (centres unmarked) [rosiglitazone]
reduction of insulin/dexamethasone stimulation of A-SAA secretion in the media [3]: about 70%

B1: A-SAA: recombinant human SAA (Peprotech); acute-phase serum amyloid A used to treat cells (protein, UniProt P0DJI8 19-122, looked up)
Serum amyloid A-1 protein: RSFFSFLGEAFDGARDMWRAYSDMREANYIGSDKYFHARGNYDAAKRGPGGAWAAEVITDARENIQRFFGHGAEDSLADQAANEWGRSGKDPNHFRPAGLPEKY
release of IL-6 [1, 4]: dramatically stimulated
release of IL-8 [1, 4]: dramatically stimulated
release of RANTE [1, 4]: dramatically stimulated
release of TNFα [1, 4]: dramatically stimulated
release of IL-6 [2, 4]: dramatically stimulated
release of IL-8 [2, 4]: dramatically stimulated
release of MCP-1 [2, 4]: dramatically stimulated
release of plasminogen activator inhibitor-1 (PAI-1) [2, 4]: dramatically stimulated
